We go through three molecules from patent publication US20200317768A1 (published 2020).

B1: M103205H795-MY066/M103202L889-SK1 (antibody, human IgG1, kappa)
heavy: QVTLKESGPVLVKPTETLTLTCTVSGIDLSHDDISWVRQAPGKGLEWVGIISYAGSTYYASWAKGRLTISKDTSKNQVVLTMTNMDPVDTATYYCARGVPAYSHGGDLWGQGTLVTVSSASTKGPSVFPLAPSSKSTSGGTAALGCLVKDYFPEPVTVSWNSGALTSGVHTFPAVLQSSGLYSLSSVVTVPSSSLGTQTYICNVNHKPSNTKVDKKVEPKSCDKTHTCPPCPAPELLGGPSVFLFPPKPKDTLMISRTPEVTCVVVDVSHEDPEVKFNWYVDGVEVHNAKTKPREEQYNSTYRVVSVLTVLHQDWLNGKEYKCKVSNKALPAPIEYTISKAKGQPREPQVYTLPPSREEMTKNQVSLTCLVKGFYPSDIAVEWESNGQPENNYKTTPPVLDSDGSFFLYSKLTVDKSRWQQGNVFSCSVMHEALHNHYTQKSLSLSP
light: DIVMTQSPATLSLSPGERATLSCTSSQSVYHANWLSWFQQKPGQPPKLLIYWASTLAYGVPSRFSGSGSGTDFTLTISSLQPEDAATYYCAGGYGGGRYAFGQGTKVEIKRTVAAPSVFIFPPSDEQLKSGTASVVCLLNNFYPREAKVQWKVDNALQSGNSQESVTEQDSKDSTYSLSSTLTLSKADYEKHKVYACEVTHQGLSSPVTKSFNRGEC
notes: Substitution introduced into M103205H795-SG1 and expressed with M103202L889-SK1 as light chain; also called K334Y variant of MS1032LO06-SG1
B2: M103205H795-MY067/M103202L889-SK1 (antibody, human IgG1, kappa)
heavy: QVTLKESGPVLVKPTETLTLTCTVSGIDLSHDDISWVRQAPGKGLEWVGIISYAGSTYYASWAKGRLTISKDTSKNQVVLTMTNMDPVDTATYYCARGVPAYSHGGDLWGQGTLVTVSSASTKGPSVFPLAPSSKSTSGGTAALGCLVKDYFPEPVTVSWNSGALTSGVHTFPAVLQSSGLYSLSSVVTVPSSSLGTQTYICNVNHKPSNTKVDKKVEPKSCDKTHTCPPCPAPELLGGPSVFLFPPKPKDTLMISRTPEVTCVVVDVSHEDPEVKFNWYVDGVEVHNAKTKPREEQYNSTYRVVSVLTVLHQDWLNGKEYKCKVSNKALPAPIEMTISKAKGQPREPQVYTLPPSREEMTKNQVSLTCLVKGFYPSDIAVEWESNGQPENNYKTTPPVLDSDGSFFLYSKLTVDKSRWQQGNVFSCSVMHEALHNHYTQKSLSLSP
light: B1 light
notes: Substitution introduced into M103205H795-SG1 and expressed with M103202L889-SK1 as light chain; also called K334M variant of MS1032LO06-SG1
B3: M103205H795-MY015/M103202L889-SK1 (antibody, human IgG1, kappa)
heavy: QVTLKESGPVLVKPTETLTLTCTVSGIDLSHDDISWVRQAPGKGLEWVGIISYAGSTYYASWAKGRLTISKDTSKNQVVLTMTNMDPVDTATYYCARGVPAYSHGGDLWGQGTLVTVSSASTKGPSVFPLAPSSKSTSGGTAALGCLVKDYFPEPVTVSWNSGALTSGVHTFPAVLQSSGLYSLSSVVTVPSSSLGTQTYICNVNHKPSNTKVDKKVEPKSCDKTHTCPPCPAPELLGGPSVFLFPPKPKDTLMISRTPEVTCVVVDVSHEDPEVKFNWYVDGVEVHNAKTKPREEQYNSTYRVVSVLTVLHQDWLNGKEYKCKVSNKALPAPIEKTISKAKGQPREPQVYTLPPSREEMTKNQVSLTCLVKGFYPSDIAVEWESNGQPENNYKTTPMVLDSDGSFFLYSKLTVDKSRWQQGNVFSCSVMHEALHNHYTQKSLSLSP
light: B1 light
notes: Substitution introduced into M103205H795-SG1 and expressed with M103202L889-SK1 as light chain; also called P396M variant of MS1032LO06-SG1

Residue numbers refer to the chain shown, from its start. Numbers in names are those of the source.

The target of one experiment is T1, human FcγRIIaR extracellular domain, His-tagged (human, UniProt P12318 34-217).
T1 construct: also called human FcγRIIa (type R); FcgRIIaR; not shown: C-terminal His-tag
T1 chain: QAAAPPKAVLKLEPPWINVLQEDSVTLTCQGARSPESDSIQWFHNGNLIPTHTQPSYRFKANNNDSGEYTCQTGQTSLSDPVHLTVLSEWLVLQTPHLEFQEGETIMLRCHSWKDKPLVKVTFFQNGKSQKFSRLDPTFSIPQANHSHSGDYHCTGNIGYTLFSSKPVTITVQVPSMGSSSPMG
Description: SPR (BIACORE), antibody captured on chip, FcγR as analyte, 25 °C; KD of SG1 divided by KD of the variant. The protocol:
(§1) After the measurement, the antibody captured on the chip was washed off by allowing reaction with 10 mM glycine-HCl, pH1.5 and 25 mM NaOH so that the chip was regenerated and used repeatedly. The sensorgrams obtained as measurement results were analyzed by the 1:1 Langmuir binding model using the BIACORE® Evaluation Software to calculate the binding rate constant ka (L/mol/s) and dissociation rate constant kd (l/s), and the dissociation constant KD (mol/L) was calculated from these values. […] Regarding such interactions, KD values were calculated using the following 1:1 binding model described in BIACORE® T100 Software Handbook BR1006-48 Edition AE.
(§2) The behavior of interacting molecules according to the 1:1 binding model on BIACORE® can be described by Equation 1: Req=C·R max/(KD+C)+RI, wherein, Req is a plot of steady-state binding levels to analyte concentration. C is concentration, RI is bulk refractive index contribution in the sample, and Rmax is analyte binding capacity of the surface. When this equation is rearranged, KD can be expressed as Equation 2: KD=C·Rmax/(Req−RI)−C. KD can be calculated by substituting the values of Rmax, RI, and C into Equation 1 or Equation 2. From the current measurement conditions, RI=0, C=2 μmol/L can be used.
On the technique in general: SPR reads the build-up and loss of mass on a sensor chip optically.
Turning to B1, the “KD fold for humanFcgRs (SG1 = 1)” value turned out to be 1.1 fold.
With B2, the “KD fold for humanFcgRs (SG1 = 1)” value came to 1.4 fold.
Still for that read-out and setting: next, B3: 3.4 fold.

For the next experiment, the target named is T2, human FcγRIIb extracellular domain, His-tagged (human, UniProt P31994 43-217).
T2 construct: also called FcgRIIb; not shown: C-terminal His-tag
T2 sequence: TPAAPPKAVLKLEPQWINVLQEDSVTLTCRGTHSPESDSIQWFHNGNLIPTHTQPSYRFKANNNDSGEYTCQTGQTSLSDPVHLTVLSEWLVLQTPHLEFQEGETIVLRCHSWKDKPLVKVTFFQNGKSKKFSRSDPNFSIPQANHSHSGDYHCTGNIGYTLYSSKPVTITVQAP
Described as above. The protocol: as §1, §2
For B1, the “KD fold for humanFcgRs (SG1 = 1)” value came out at 1.6 fold.
Same read-out and setting: the result for B2 reads 1.6 fold; that for B3, 2.9 fold.

In a further experiment the target is T3, human FcγRIIIaV extracellular domain, His-tagged (human, UniProt P08637 17-208).
T3 construct: also called human FcγRIIIa (V158 allotype); FcgRIIIaV; not shown: C-terminal His-tag
T3 sequence (P08637 17-208 F176V): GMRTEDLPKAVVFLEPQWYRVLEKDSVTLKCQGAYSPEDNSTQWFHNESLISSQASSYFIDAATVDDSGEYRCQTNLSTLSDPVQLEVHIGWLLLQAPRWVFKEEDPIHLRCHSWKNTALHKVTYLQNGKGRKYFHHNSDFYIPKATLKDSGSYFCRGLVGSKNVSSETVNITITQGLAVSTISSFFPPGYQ
The experiment is described as above. The protocol: as §1, §2
Regarding B1, the “KD fold for humanFcgRs (SG1 = 1)” value was 2.79 fold.
Still for that read-out and setting: next, B2: 4.05 fold.
The same measure, in the same setting: next, B3: 3.38 fold.

The target of another experiment is T4, cynomolgus monkey FcγRIIa1 extracellular domain, His-tagged (cynomolgus monkey).
T4 construct: also called cyno FcγRIIa1; cynoFcgRIIa1; not shown: C-terminal His-tag
T4 chain: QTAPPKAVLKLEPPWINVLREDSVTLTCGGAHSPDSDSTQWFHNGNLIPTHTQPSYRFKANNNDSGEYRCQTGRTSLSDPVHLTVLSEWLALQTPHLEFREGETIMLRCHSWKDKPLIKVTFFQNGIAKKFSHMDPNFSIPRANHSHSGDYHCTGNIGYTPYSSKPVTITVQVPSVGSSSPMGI
The description is as above. The protocol:
as §1, §2
Consider B1, for which the “KD fold for cynoFcgRs (SG1 = 1)” value was 1.5 fold.
On the same count and under the same terms, next, B2: 1.5 fold.
Same read-out and setting: the result for B3 reads 2.5 fold.

In a further experiment the target is T5, cynomolgus monkey FcγRIIa2 extracellular domain, His-tagged (cynomolgus monkey).
T5 construct: also called cyno FcγRIIa2; cynoFcgRIIa2; not shown: C-terminal His-tag
T5 chain: T4 chain with P95T, T121A, I127K, A128S, K130N, D135N, R142Q
Described as above. On the procedure:
as §1, §2
B1: the “KD fold for cynoFcgRs (SG1 = 1)” value came to 2 fold.
Take B2: the “KD fold for cynoFcgRs (SG1 = 1)” value turned out to be 2.2 fold.
Still for that read-out and setting: next, B3: 3.4 fold.

In another experiment the target is T6, cynomolgus monkey FcγRIIa3 extracellular domain, His-tagged (cynomolgus monkey).
T6 construct: also called cyno FcγRIIa3; cynoFcgRIIa3; not shown: C-terminal His-tag
T6 chain: T4 chain with P95T, T121A, A128S, H133P, D135N
The description is as above. On the procedure: as §1, §2
With B1, the “KD fold for cynoFcgRs (SG1 = 1)” value was determined as 2.5 fold.
The same measure, in the same setting: next, B2: 2.5 fold; B3: 3.6 fold.

A further experiment has as its target T7, cynomolgus monkey FcγRIIb extracellular domain, His-tagged (cynomolgus monkey).
T7 construct: also called cyno FcγRIIb; cynoFcγRIIb; not shown: C-terminal His-tag
T7 chain: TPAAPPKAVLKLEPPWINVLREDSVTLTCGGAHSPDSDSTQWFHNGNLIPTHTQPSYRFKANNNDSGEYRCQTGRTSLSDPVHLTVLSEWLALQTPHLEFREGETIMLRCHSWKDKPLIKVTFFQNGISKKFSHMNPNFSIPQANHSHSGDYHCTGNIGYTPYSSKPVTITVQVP
The experiment is described as above. The protocol: as §1, §2
As to B1, the “KD fold for cynoFcgRs (SG1 = 1)” value came to 1.3 fold.
With B2, the “KD fold for cynoFcgRs (SG1 = 1)” value is 1.6 fold.
On the same count and under the same terms, next, B3: 3 fold.

For the next experiment, the target named is T8, cynomolgus monkey FcγRIIIaS extracellular domain, His-tagged (cynomolgus monkey, UniProt Q8SPW2 21-206 at identity 1.00)).
T8 construct: also called cyno FcγRIIIaS; cynoFcγRIIIaS; not shown: C-terminal His-tag
T8 chain: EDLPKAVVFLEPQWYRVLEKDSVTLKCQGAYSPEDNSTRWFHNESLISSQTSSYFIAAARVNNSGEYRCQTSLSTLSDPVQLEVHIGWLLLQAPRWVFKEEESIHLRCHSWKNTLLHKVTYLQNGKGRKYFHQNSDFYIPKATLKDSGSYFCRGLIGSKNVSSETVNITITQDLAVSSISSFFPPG
The description is as above. On the procedure: as §1, §2
As for B1, the “KD fold for cynoFcgRs (SG1 = 1)” value was found to be 2.25 fold.
Same read-out and setting: the result for B2 reads 3.6 fold; that for B3, 3.8 fold.

The target in another experiment is T9, human FcγRIIaH extracellular domain, His-tagged (human, UniProt P12318 34-217).
T9 construct: also called human FcγRIIa (type H); FcgRIIaH; not shown: C-terminal His-tag
T9 sequence: T1 chain with R134H
The description is as above. The protocol:
as §1, §2
B1: the “KD fold for humanFcgRs (SG1 = 1)” value is 1.1 fold.
The same measure, in the same setting: the result for B2 reads 1.3 fold.
Still for that read-out and setting: next, B3: 2.1 fold.
